This series can be described thus: label from the status in PepcDB records.
As to “MNRIEHYHDWLRDAHAMEKQAESMLESMASRIDNYPELRARIEQHLSETKNQIVQLETILDRNDISRSVIKDSMSKMAALGQSIGGIFPSDEIVKGSISGYVFEQFEIACYTSLLAAAKNAGDTASIPTIEAILNEEKHMADWLIQHIPQTTEKFLIRSETDGVEAKK”, the protein production result was “not failed”. Next, “MNRNGQRRFLEFFAGGGMARLGLGADWACAFANDFDPVKAATYRANFADAGKHFQEGDVFALSAERLPDADLAWASSPCQDFSLAGARAGLAGGRSSAFFGFWSLMRSLSAEGRAPSVIVIENVVGLLTSHGGADFTALCQALHEEGYRFGALEIDAGAFVPQSRPRVFVVATRNPPGDLVGSSAFHTRAVREAAARLPADLQASWVWWGAPSPPARNTDLASMLEPDDRAVW”: “failed”. Next, “TSAGWVSVAIGPLPLRCWWSPPAGCRRDIDNISIENRAYIVLPEVFGVNAWVRSVADRLAAQGIPALAVPLFARTAPELELAYESCDLAQGRAHKDATTASQILSDVSAAVAWLQQRCPNAAIDLAGFCFGGHAALLAATLPQIRHSFDFYGAGVSRMRPGGGAPSLELLPQVSGQLTCVCGSADPLIPEEDRTTIRSALAAADPSGKRMSYIEIDGVDHGFMCEARGSFDADASALGWQLMLA”: “failed”; “SIDSKLQTLGEQLMQGKRGAIVMIEPETGEVLCLVSSPSYDPSLLAGKDRGKNHLEMEHDRNKPLYARAIQATYPPGSTFKPAQGAIFLQEGVIRPTDAFSCYHGFPPLNNRPACHSHGSPLSLVPALATSCNAFFCWGLRAMLDNRRFYPSVQEAFEHWKNRIVGLGFGYRLGLDLPGERRGYIPNSKVYDKAYKGRWNSSTIISISIGQGEILATPLQIANLGVIIANRGRYRRPHVVKAIQGIPLDTAYTNWQNSGISPANMEYIVEGMARAVTGGTCHAANFAPGEIEVCGKTGTAENPHGKDHSAFLGFAPRNNPKVVVSVYVENGGFGAVYGVPIGRVMMEYYLREGKLSPEGEAVATKMSNTAIHYSNVF”: “failed”; “MARVVVDAQAARAIGKGAMIVFKKGVVRVEGDIKPGDIVEVYTRGGKFLGKGFANPNSNIMVRIVTKDKDVEINKDLFKRRIKKANEYRKKVLKYTNVYRMVYGEADYLPGLIVDRFNDIASLQISSAGMERFKLDVAEAIMEVEPGIETVFEKNTGRSRRREGLPEIERVLLGKEKYRTIIQEGRAKFIVDMRGQKTGFFLDQRENRLALEKWVQPGDRVLDVFTYTGGFAIHAAIAGADEVIGIDKSPRAIETAKENAKLNGVEDRMKFIVGSAFEEMEKLQKKGEKFDIVVLDPPAFVQHEKDLKAGLRAYFNVNFAGLNLVKDGGILVTCSCSQHVDLQMFKDMIIAAGAKAGKFLKMLEPYRTQAPDHPILMASKDTEYLKCLFLYVEDMR”: “not failed”. In the case of “MSKEMRSRLFSILKVVFAVALFSIVVFTLYKELSHINIKETIQSFGKINRVWLVALFVIGGASIIVLSMYDVILAKSLNLKISLLKTIRVGYIVNALNAVVGFGGFIGASVRFLFYKNATDDKRALLHTISIVLISMLTGLSLLSILVVIHVFDVSHLFTPYPWIKWLMYVVALFLPVFVIFTILRPVQENQKLLGVYCTIVSSIEWLVAALVLYMALTMVGVHVPISIFMGIFIIAALSGLISFIPGGFGTFDLVVLLGLKHLNIDEESIVLGLLLYRFAYYLFPVLVALILSTFEFRGTAKRYWEDARILVPVRDMTSLLSSYQKDIIARAPSFSIAILLMFTSLLFFLNNLTIIYDGLYDPNHYIYYIIVSVHTCACLLLLLNVVGVYRLSKRAILFSIISIILIFIVTAYTYASFILLSWLVVMLILLFIFYRRARVIKRPFRYLKLCLSFIMGALVLYINHIVIASTFYTLDIYHIEIDTSILRYYFWFTILLVAVIVGLIVWWFEYRYRISNTREDTKICASIVKQYGGNYLSHLMYSGDKKFFINENEDAFIMYRYQRNAYIVLGDPIGNPQSFYSLLESFYQEAEYLGYDIIFYQVTDRNMSLYHSFGNQFFKLGEEAVIDLNEFKISGKKKRGLRATLNKLDDLKYTFEVIEPPFTQALITDLKTISDEWLADKKEMHFSVGSFNESYLSKAPIAIIKDSDGLIIAFCTLMPTYYKGTISVDLIRWKPDCTLPLMDGLYLNMLLWSQKQNYQHFNMGMATLSNVGQLPYSFYGERIAGRVFEHFNGLYRFQGLRKYKEKFNPNWEPRFLVYRKRHSLWLSMIKVMRVIRKHK”, the protein production entry was “failed”.

Take “MSDEWKSETPKANDDKSWKLLEKAVLAGVQEQRRARRWGIFFKSLTFIYLFVVLLAFSPFGSLEKSASRSGSHTALIEVKGMIADDEPASADNIVTALRAAFKDEGTKGIVLRINSPGGSPVQSGYIYDEIRRLRGEHPNVKVYAVISDLGASGAYYIASAADQIYADKASLVGSIGVTAASFGFVGTMEKLGVERRVYTSGEHKSFLDPFQPQKPEETQFWQQVLDTTHKQFIDSVKKGRGDRLKVEGHPELFSGLVWSGEQALQLGLIDGLGNASYVAREVVKEKKIEDYTVQESPFDRFAKKFGASVAERLALWMGWQGPVLRLEHHHHHH”: the protein production result is reported as “failed”. With “MNGRRERAQGTEWAGDPAGCGTMERMPSALPDGEPVPADGALPASALAGAADRPLGFYLHVPYCATRCGYCDFNTYTATELRGTGGVLASRDNYADTLVDEVRLARKVLGDDPREVRTVFVGGGTPTLLAAGDLVRMLGAIRDEFGLAPDAEITTEANPESVDPAYLATLRAGGFNRISFGMQSAKQHVLKILDRTHTPGRPEACVAEARAAGFDHVNLDLIYGTPGESDDDWRASLDAALGAGPDHVSAYALIVEEGTQLARRIRRGEVPMTDDDVHADRYLIAEEALSAAGYDWYEVSNWATSDAGRCLHNELYWRGADWWGAGPGAHSHVGGVRWWNVKHPGAYAGALAAGKSPGAGREILTDEDRRVERILLELRLREGVPLSLLREAGLAASRRALSEGLLQEGPYEAGSAVLTLRGRLLADAVVRDLVD” the entry was “failed”; with “MYALISLEEDPSLLRYGYLSQDNVGDVRREVSKLCGELRPHALALVTSFGIPDSFLSPIAFNWVEANTWSSV”, “failed”. “MYKIDEVTKQVGLTKRTLRYYEEIGLIHPPERSEGNIRLYTDEDIARIKRIVEAKEVLGITLQEMQHFLSLKERMEQRRNSENPRDREVIQEIKEMLEKQVQTLDEKMEQMQRVKGELEDSLHRAVTFLENTKGE”: the protein production result is reported as “failed”. Turning to “MNNIKRFFRYISKNAKYIDYPLVVTYLLLCLIGLVMVYSASMVAATKGSLTGGISVPGTYFYTRQLMYVIMSLVIVFFMAFFMNVKLLETIRFQKWMMIGIIILLAATLVVGSNINGSKSWINLGFMNLQASELLKIAIILYIPYMIEKKRPKVFKQPKLMTSPIILAGLCIALVLLQRDVGQTLLIMIIFVSILFYAGIGVQKSIKYGLLIIVGVVIIGSLFLIIGLVPDYLTARFSTLTNPFSQESGTGYHISNSLIAIGNGGLLGRGLGNSIMKLGYLPEPHTDFIFSIICEELGLVGGLVVICLLFFIVYRAFELANKTNSYFYKLVCVGVASYIGSQTFVNLGGISGTIPLTGVPLPFISFGGSSMISLSIALGLLLITGKQIRIEAYRKKQANKKKTHIGMTRRY”, the protein production result is reported as “failed”. Next, “SVDDDLYFIPKKKAEKKEEVKQEVKVVVPQKQNTTTVYAAPGSTVVVKDVKGKVRDVDEYNRRYTSRDNNFSMENDTLYIEEKPLNERGEWVNGFEGSQDDYEYAMRIVRFRNPRYAIPVSSPLYWDVVYGLPSWDWNVYDDGLYAYVFPTYTNRLWWDWRWNYPYGASWGFSWGWSSPWYYNSWYYPGYWGGGYWGGYWGYHHHHHHHYYPHYSGHGWGGGYWGGGHGWYGSSRRNPGIHAGRYTNSYGSSRPSRNNYVNSYDRNSRNSYVGNSRQNVRNSANSYRTATRNGSSSGRVVSGSDGVNSVRPNRSAIRTRTGATLSPSQAAGVRPGNSYSRPTEGRGSSYTRPSS”: “failed”; “MTTNTIMEQEARTAPQKIAEQLLANDAITESLGSVLREFKPKFVMIVGRGSSDHAGVFAKYLFEIEASIPTFAAAPSVASVYGKTLKLAGGLVIVISQSGRSPDILAQARMAKNAGAFCVALVNDETAPIKDIVDVVIPLRAGEEKAVAATKSYLATLSALLQVAAKWTQNESLVEAVNSLPQALQAAVDAEPQLRAGSLTDVKNLVVLGRGFGYAVSKEIALKLKEVCAIHAEAFSSAEFLHGPVTLVEKKLSILDVCIRDESYGSHVEQIANVKQRGANLIHLHQTSADIHPRIAPLALLQRFYIDVAAVAIALGINPDKPAGLKKVTQTL”: “not failed”. Next, “MSLSTMLVAEDLSAVGGISLSSALPVLTAMQYDVAALPTSLLSTHTSGYGTPAVVDLSTWLPQVFAHWTRAQLHFDQALIGYVGSVALCQQITTYLEQQTLSLLVVDPVLGDLGQLYQGFDQDYVAAMRQLIQQADVILPNTTEAALLTGAPYQVTPDLEVILPALQAQLKTGAHAVITDVQRADQIGCAWLDEAGHVQYCGARRLPGHYNGTGDTLAAVIAGLLGRGYPLAPTLARANQWLNMAVAETIAQNRTDDRQGVALGDLLQAILALNEGHHHHHH”: “not failed”.

Consider “MSLANRIRLHIWGDYACFTRPEMKVERVSYDVITPSAARGILSAIHWKPAINWVIDKIYVLKPIRFESVRRNELGAKISESKVSGAMKRKSVADLYTVIEDDRQQRAATVLKDVAYVIEAHAVMTSKAGVDENTTKHIEMFKRRALKGQCFQQPCMGVREFPAHFALIDDNDPLPLSQLSESEFNRDLGWMLHDIDFEHGNTPHFFRAELKNGVIDVPPFYAEEVKREGHHHHHH”, for which the protein production entry is on record as “not failed”.

For “MADNTNVTRRSFLTATGAAAGSVALVGVSAGESDDPWNSDRSEYIVGVSNVEDDPQQHVEQYLQGQEQVGSVQERLNTAVVGLPADAPESVRKQFVDRLESRDTIKYVEQNVELQAQLVPNDPRFGDQYADQQVNAPEAWDTTTGDAGVTIGVVDQGVKYDHPDLDGNIDRSVSNGGRDFVDDDGDPYPDSLNEEIHGTHVAGIAAAEVNNGNGVTGIGNSSVIAGRALSERGSGSTADIADAITWAANEGADVINLSLGGGGYTNTMQNAVTYAANQGALVVAAAGNDGSGSVSYPAAYGGVLAVSALDPDESLASYSNYGPKIDLAAPGTNVLSTWTADDYESISGTSMATPVVAGVAGLTLAQWELSNAELRNHLKATAVDIGLSDRQQGAGRVDAANAVNTDPGSGGGGGGGGGGDSTSSSVSGSLRGRGDSNCWSFSYEYSNPSQVVIELDGPGNADFDLYANTSTNACPTTSSYEFRSWTTGSQESITIDNPDTSVDLNVLAYAYSGRGDLTVTVTEYK”, the protein production result was “failed”.

For “MPFRTPNIANMTDKKFLPQLDENLPTDVFFHYFFLEAKTETLSHSHPWGQLHLIKQGRLEMEVDKQKMFCPANYAIWTPAHLLHRAFNHNDVEYCAINIEFELSQKLPTSACMFPLTPLLRAIVDDLVERQTTEVLSTEDKYLSHVLIERLSKTNPIENYLPFTDDKLLAPILMQLQENPADDSSLEIWAKRVFSTERTLARRFQKELKMSFNDWRQRAKLAKAMVLLKDAISINEIAYQLGYSQGSSFIKMFRKHTGVTPEQFRKEQQGK”, the protein production entry was “failed”. With “GLEVTVWNRSAAACEPLVALGAARAEEVGELFGLDVVISMLADDQAIRGVLLDSGALERARPGLIHLSMSTLSLDCVEALDQAHQRQGLAFVAAPVFGRTDVAEAGKLNIVVGGPEEAIEQVKALLEIMGQKTWFFGKDPRGAMAVKISGNFMIASAIESMGESVALVKRLGVEPGRFMELMSSTLFDAPVYRNYGPQIVEQRFTPARFRLVLGLKDVDLALSAGKRHNVPLPLASLLHDVLLEAIAHGDGESDWTALAKVALSRSGQI” the entry was “failed”; with “SLSPAELHADSIVIDGLIIAKWNRELFEDMRKGGLTAANCTVSVWEGFQATVNNIVASNKLIRDNSDLVIPVRSTADIRKAKEQGKTGILYGFQNAHAFEDQIGYVEVFKQLGVGIVQMCYNTQNLVGTGCYERDGGLSGFGREIVAEMNRVGIMCDLSHVGSKTSEEVILESKKPVCYSHCLPSGLKEHPRNKSDEELKFIADHGGFVGVTMFAPFLKKGIDSTIDDYAEAIEYVMNIVGEDAIGIGTDFTQGHGHDFFEWLTHDKGYARRLTNFGKIVNPLGIRTVGEFPNLTETLLKRGMPERVVRKVMGENWVRVLRDVWGE”, “not failed”.

The record behind these values is a protein production outcome set (Wang et al. 2014).
